# Assay results from paper PMC10361598 (Science Advances, 2023).
# Where two headings read alike, the source gives them in different places.
# B1: CXCR4^QTY-Fc (Fc fusion)
# chain: PSTCSKPTCPPPELLGGPSVFIFPPKPKDTLMISRTPEVTCVVVDVSQDDPEVQFTWYINNEQVRTARPPLREQQFNSTIRVVSTLPITHQDWLRGKEFKCKVHNKALPAPIEKTISKARGQPLEPKVYTMGPPREELSSRSVSLTCMINGFYPSDISVEWEKNGKAEDNYKTTPAVLDSDGSYFLYNKLSVPTSEWQRGDVFTCSVMHEALHNHYTQKSISRSPGK
# modifications: RED-NHS fluorescent label (Monolith NT Protein Labeling Kit RED-NHS), in the MST only
# Key:
# CXCL12 [1] = target: T1, CXCL12 (UniProt P48061 22-93); assay: graphene field-effect transistor array
# CXCL12 [2] = target: T1, CXCL12; assay: graphene field-effect transistor array; remark: listed apart in the source
# T1 sequence (P48061 22-93): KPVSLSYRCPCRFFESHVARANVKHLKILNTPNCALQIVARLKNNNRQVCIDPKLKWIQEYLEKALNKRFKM
binder,measurement,setting,value
B1,Kd,CXCL12 [1],24.8 ± 13 nM
same,Kd,CXCL12 [2],20.1 ± 9.1 nM
